Patent US20260265321A1, “PEPTIDE AND POLYPEPTIDE INHIBITING THE NF-KB SIGNALING PATHWAY” (Centre National de la Recherche Scientifique, priority 2023, published 2026)
Each block holds one molecule with its values, some of them ahead of it. Residues, ends and D or L forms follow the SMILES beside them.

Key:
[1] = target: T1, IKKα(10-667) EE homodimer (Homo sapiens, UniProt O15111, S176E/S180E); experiment: Isothermal titration calorimetry (ITC) of peptide binding to IKKα homodimer; conditions: 25° C.; for N (binding stoichiometry of IKKα: pep): 1:1 binding model; for TΔS / ΔG / ΔH: IKKα
T1 construct: an equivalent construct of the IKKα homodimer (i.e. IKKα(10-667) S176E/S180E, named IKKα(10-667) EE hereafter); 6×His (followed by TEV site) (N, cleaved yes); made in house; host or cells: Sf21 insect cells (baculovirus)
T1 sequence (O15111 10-667 S176E/S180E): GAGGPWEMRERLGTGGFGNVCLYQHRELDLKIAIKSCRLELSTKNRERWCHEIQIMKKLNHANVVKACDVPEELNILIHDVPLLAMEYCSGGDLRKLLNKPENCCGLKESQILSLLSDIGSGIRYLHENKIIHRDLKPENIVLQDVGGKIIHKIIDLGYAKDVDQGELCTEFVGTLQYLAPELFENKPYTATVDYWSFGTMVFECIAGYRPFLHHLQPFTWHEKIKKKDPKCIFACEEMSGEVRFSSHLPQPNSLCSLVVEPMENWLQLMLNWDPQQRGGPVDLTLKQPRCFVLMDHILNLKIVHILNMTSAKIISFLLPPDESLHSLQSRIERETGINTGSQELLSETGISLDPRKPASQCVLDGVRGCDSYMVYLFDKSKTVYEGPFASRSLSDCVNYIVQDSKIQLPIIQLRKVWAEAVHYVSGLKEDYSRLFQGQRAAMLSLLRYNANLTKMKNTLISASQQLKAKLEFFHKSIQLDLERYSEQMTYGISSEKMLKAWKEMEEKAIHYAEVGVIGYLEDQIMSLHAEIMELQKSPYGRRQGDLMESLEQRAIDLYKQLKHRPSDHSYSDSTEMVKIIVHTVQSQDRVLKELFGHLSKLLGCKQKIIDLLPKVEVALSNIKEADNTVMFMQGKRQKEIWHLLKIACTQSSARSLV
Procedure: All experiments were performed in ITC buffer (20 mM HEPES pH 8.0, 150 mM NaCl, 1 mM TCEP) unless otherwise stated. Purified IKKα(10-667) EE and IKKβ(1-669) EE protein samples were dialyzed overnight against ITC buffer at 4° C. Just before the ITC experiments, IKKα or IKKβ samples were concentrated, incubated at room temperature for 30 minutes and centrifuged at 11000 g to remove eventual precipitate. The final concentrations of IKKα and IKKβ in the sample cell varied between 22 and 50 μM depending on the measurement. HPLC purified synthetic peptides (IκBα pep) comprising residues 297-317 of IκBα were further desalted using a Nap5 (GE Healthcare, #17-0853-01) column equilibrated in milliQ water, lyophilized and then resuspended in ITC buffer. The concentration of peptides in the syringe varied between 220 and 975 μM depending on the measurement.
All ITC measurements were performed using a PEAQ-ITC MALVERN instrument. The titration parameters were set as following: temperature 25° C., reference power 10 μcal/s, feedback=high, stirring speed 750 RPM, initial delay 60 s, first injection 0.4 μl in 0.8 s and the remaining 19 injections were 2 μL in 4 s with 120 s of spacing. The data were fitted to a 1:1 binding model. All data were processed using NITPIC software and global fitting of two datasets was carried out using SEDPHAD.
To evaluate binding affinities, isothermal titration calorimetry (ITC) experiments were performed using a synthetic peptide that comprises the YDDφXφ motif plus the N-terminal acidic patch (residues 297-317, named IκBα pep hereafter) and purified IKKβ(1-669) EE homodimer or an equivalent construct of the IKKα homodimer (i.e. IKKα(10-667) S176E/S180E, named IKKα(10-667) EE hereafter). […] ITC analyses on the IKKα/β heterodimer were prevented by strong aggregation propensity at the concentrations required for these experiments.
All ITC experiments were performed at 25° C. The data were fitted to a 1:1 binding model. N refers to the binding stoichiometry of IKKα/β: pep, meaning that approximately half of total IKKα/β concentration binds pep ligand in agreement with the dimer form of IKKα/β being binding competent. The values for the IKKα interaction with IRF7 pep should be regarded as estimates due to low affinity and weakly exothermic binding, and therefore high experimental error and fitting uncertainty. All data were processed using NITPIC software and global fitting of two datasets was carried out using SEDPHAD.

[2] = target: T2, IKKα(10-667) S176E/S180E homodimer, 6×His tag removed (human, UniProt O15111 10-667); experiment: ITC, 25 °C, synthetic peptide into IKK homodimer, 1:1 model
T2 construct: also called purified IKKα
T2 sequence (looked up): T1 sequence (O15111 10-667 S176E/S180E)
Procedure: (§1) All experiments were performed in ITC buffer (20 mM HEPES pH 8.0, 150 mM NaCl, 1 mM TCEP) unless otherwise stated. […] Just before the ITC experiments, IKKα or IKKβ samples were concentrated, incubated at room temperature for 30 minutes and centrifuged at 11000 g to remove eventual precipitate. The final concentrations of IKKα and IKKβ in the sample cell varied between 22 and 50 μM depending on the measurement. […] The concentration of peptides in the syringe varied between 220 and 975 μM depending on the measurement.
(§2) All ITC experiments were performed at 25° C. The data were fitted to a 1:1 binding model. […] All data were processed using NITPIC software and global fitting of two datasets was carried out using SEDPHAD.

[3] = target: T3, IKKβ(1-669) S177E/S181E homodimer, 6×His tag removed (human, UniProt O14920 1-669); experiment: as above
T3 sequence (looked up): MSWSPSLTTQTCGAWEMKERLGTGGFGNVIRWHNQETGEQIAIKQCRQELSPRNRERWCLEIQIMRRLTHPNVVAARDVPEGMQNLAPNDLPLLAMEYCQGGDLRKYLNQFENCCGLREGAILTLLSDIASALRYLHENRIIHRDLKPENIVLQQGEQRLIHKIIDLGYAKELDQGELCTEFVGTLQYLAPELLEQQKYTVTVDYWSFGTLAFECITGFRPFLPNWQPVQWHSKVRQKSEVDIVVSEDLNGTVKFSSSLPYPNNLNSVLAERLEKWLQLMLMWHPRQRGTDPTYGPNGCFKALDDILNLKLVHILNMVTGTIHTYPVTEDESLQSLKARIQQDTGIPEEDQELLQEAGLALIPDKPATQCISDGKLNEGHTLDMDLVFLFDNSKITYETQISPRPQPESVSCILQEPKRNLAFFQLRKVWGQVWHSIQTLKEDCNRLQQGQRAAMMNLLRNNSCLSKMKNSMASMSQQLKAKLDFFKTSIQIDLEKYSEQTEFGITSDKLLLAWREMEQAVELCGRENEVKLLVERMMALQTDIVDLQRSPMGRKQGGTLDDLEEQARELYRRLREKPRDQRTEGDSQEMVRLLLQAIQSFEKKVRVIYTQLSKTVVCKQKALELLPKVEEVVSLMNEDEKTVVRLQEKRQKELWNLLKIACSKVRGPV
Procedure: as §1, §2

N (binding stoichiometry of IKKα: pep) [1]: 0.6
TΔS [1]: -1.2 kcal/mol
ΔG [1]: -5.5 kcal/mol
ΔH [1]: -6.7 kcal/mol
Molecule: CC[C@H](C)[C@H](NC(=O)[C@H](CC(=O)O)NC(=O)[C@H](CC(=O)O)NC(=O)[C@H](Cc1ccc(O)cc1)NC(=O)[C@H](CC(C)C)NC(=O)[C@H](CO)NC(=O)[C@H](CC(N)=O)NC(=O)[C@H](C)NC(=O)[C@H](CO)NC(=O)[C@H](CO)NC(=O)[C@@H](N)CC(C)C)C(=O)N[C@@H](CCC(=O)O)C(=O)N[C@@H](CS)C(=O)N[C@@H](Cc1ccccc1)C(=O)N[C@@H](CC(C)C)C(=O)N[C@@H](CCSC)C(=O)N[C@@H](CCC(=O)O)C(=O)N[C@@H](CC(C)C)C(=O)N[C@@H](CCC(=O)O)C(=O)N[C@@H](CCC(N)=O)C(=O)N1CCC[C@H]1C(=O)N[C@@H](C)C(=O)O [IRF7 pep] (H-LSSANSLYDDIECFLMELEQPA-OH; N-terminus and C-terminus assumed)

N (binding stoichiometry of IKKα: pep) [1]: 0.60
TΔS [1]: -5.56 kcal/mol
ΔG [1]: -6.77 kcal/mol
ΔH [1]: -12.3 kcal/mol
Molecule: CC[C@H](C)[C@H](NC(=O)CNC(=O)[C@H](CC(=O)O)NC(=O)[C@H](CC(C)C)NC(=O)CN)C(=O)N[C@H](C(=O)N[C@@H](CCC(=O)O)C(=O)N[C@@H](Cc1ccc(O)cc1)C(=O)N[C@@H](CC(=O)O)C(=O)N[C@@H](CC(=O)O)C(=O)N[C@@H](Cc1ccccc1)C(=O)N[C@@H](CCCCN)C(=O)N[C@@H](CC(C)C)C(=O)N[C@@H](CC(N)=O)C(=O)N[C@@H](CO)C(=O)N[C@@H](CO)C(=O)N[C@H](C(=O)N[C@H](C(=O)N[C@@H](CCC(=O)O)C(=O)N1CCC[C@H]1C(=O)N[C@@H](CCCCN)C(=O)N[C@@H](CCC(=O)O)C(=O)O)C(C)C)[C@@H](C)CC)[C@@H](C)CC [p100 pep] (H-GLDGIIEYDDFKLNSSIVEPKE-OH; N-terminus and C-terminus assumed)

Kd [2]: 11 µM
N (binding stoichiometry) [2]: 0.6
TΔS [2]: -5.56 kcal/mol
ΔG [2]: -6.77 kcal/mol
ΔH [2]: -12.3 kcal/mol
Molecule: GLDGIIEYDDFKLNSSIVEPKE [synthetic p100 pep]

N (binding stoichiometry) [3]: 0.58
TΔS [3]: -9.78 kcal/mol
ΔG [3]: -6 kcal/mol
ΔH [3]: -15.8 kcal/mol
N (binding stoichiometry) [2]: 0.62
TΔS [2]: -8.35 kcal/mol
ΔG [2]: -6.88 kcal/mol
ΔH [2]: -15.2 kcal/mol
B1: synthetic IκBα pep wt (residues 297-317 of IκBα) (peptide)
peptide: EFTEDELPYDDCVFGGQRLTL
notes: HPLC purified synthetic peptide; also called IkBα pep wt; P1
